Non-standard residues stand in square brackets, D forms with d. Residues, ends and D or L forms follow the SMILES beside them. *: point of attachment. 5FAM = O=C1OC2(c3ccc(O)cc3Oc3cc(O)ccc32)c2ccc(C(=O)*)cc21
Key:
[1] = tested on: CD4+ T cells; format: cell-based; details: human CD4+ T-cells; 1 mg/ml peptide in the extracellular medium; percent of cells containing peptide by flow cytometry
Protocol: (§1) Frozen, de-identified human PBMCs (Allcells, Alameda, CA) were thawed and stimulated with 6 IU IL-2 (R&D Systems, Minneapolis, MN) and 10 μg/ml concanavalin A (ConA, MilliporeSigma, Billerica, MA) in RPMI. Six days post-thaw, CD4+ T cells were positively isolated using an EasySep Human CD4 positive selection kit in a RoboSep robot (#18052RF, Stemcell Technologies, Cambridge, MA). 2D10 Jurkat cells ([38]) were also grown in RPMI. L22 selectively labeled with 5/6-carboxyfluorescein was added at indicated concentrations at indicated time points prior to flow cytometry analysis as described above.
(§2) Fig. S4. Uptake of fluorescein-labeled L22. a). The turn residue, Lys6, of L22 was first selectively labeled with 5/6-carboxyfluorescein using NHS coupling chemistry and incubated with either CD4+ T cells (top) […]
(§3) containing peptide was analyzed by flow cytometry. b). 2D10 Jurkat cells were first stimulated with TNFα for 4hrs then incubated with L22-AF647 (red) for 30min prior to FISH staining for HIV TAR RNA (yellow), nuclear staining with DAPI (blue) and GFP expression dependent on transcription of HIV (green).
(§4) Panel I overlay all four stains, Panel II is L22-AF647 only; Panel III is L22-AF647 and TAR FISH, Panel IV L22-AF647 and GFP expression.
(§5) (1 picture or pasted object on this page, not shown here)

[2] = tested on: 2D10 Jurkat cells; format: cell-based; details: 1 mg/ml peptide in the extracellular medium, percent of cells containing peptide by flow cytometry
Protocol: as §1, §2, §3, §4, §5

[3] = tested on: JB185 (synthetic); assay: EMSA
[4] = tested on: JB190 (synthetic); assay: EMSA
[5] = biological target: P-TEFb/Tat1:57/AFF4;JB181 (HIV-1 (Tat); human? (P-TEFb, AFF4);synthetic) (UniProt O60563+P50750+P04608+Q9UHB7); assay: EMSA
[6] = tested on: JB184 (synthetic); assay: EMSA
[7] = tested on: JB186 (synthetic); assay: EMSA
[8] = tested on: JB58 (synthetic); assay: EMSA
[9] = tested on: JB59 (synthetic); assay: EMSA
[10] = tested on: JB181 (synthetic); assay: EMSA
[11] = tested on: L22 (synthetic); assay: EMSA
[12] = tested on: JB181 (synthetic); assay: 2-aminopurine fluorescence; details: C24 replaced by 2-aminopurine
[13] = biological target: P-TEFb/Tat1:57/AFF4 (HIV-1 (Tat); (P-TEFb, AFF4), UniProt O60563;P50750;P04608;Q9UHB7 1-264;1-330;1-57;2-73); assay: EMSA; 250-fold excess yeast tRNA; RNA 100 pM; details: protein: recombinant; copies: 1;1;1;1; label: 5'-32P; hairpin with UCU bulge

In the case of CC[C@H](C)[C@@H]1NC(=O)[C@H](CCCNC(=N)N)NC(=O)[C@H](CCCNC(=N)N)NC(=O)CNC(=O)[C@H](CCCCNC(=O)c2ccc3c(c2)C(=O)OC32c3ccc(O)cc3Oc3cc(O)ccc32)NC(=O)[C@H](CCCNC(=N)N)NC(=O)[C@H]([C@@H](C)O)NC(=O)[C@H](CCCNC(=N)N)NC(=O)[C@H](C(C)C)NC(=O)[C@H](CCCNC(=N)N)NC(=O)[C@@H]2CCCN2C(=O)[C@H]2CCCN2C(=O)[C@H]([C@@H](C)CC)NC(=O)[C@H](CCCNC(=N)N)NC1=O [fluorescein-labeled L22] (cyclo(RVRTRK(5FAM)GRRIRI[dP]P)), the “uptake (in words)” value [1] is reported as “good uptake” and the “uptake (in words)” value [2] is reported as “good uptake”.

“GGCAGAUCUGAGCCUGGGAGCUCUCUGCC [HIV-1 TAR]” gave a Kd [3] of 0.5 nM, a Kd [4] of 1.6 nM and a Kd [5] of 17 nM. The Kd [6] was greater than 250 nM, the Kd [7] was 1.2 nM and the Kd [8] was 3 nM. For the same molecule, the Kd [9] was 1 nM, the Kd [10] was less than 0.18 nM and the Kd [11] was 30 nM.

Molecule HIV-1 TAR C24 2-aminopurine has a Kd [12] of 0.028 nM.

GGCAGAUCUGAGCCUGGGAGCUCUCUGCC (structured_RNA) [HIV-1 TAR] showed a Kd [13] of 9 ± 4 nM.
